Substitutions are numbered along the chain they refer to.

17 molecules from US20200405852A1 (BIOVERATIV USA, published 2020) can be followed below.

Assay [1] concerns the target T1, activated human complement C1s (human, UniProt P09871 16-688).
T1 construct: also called aC1s; active C1s
T1 sequence: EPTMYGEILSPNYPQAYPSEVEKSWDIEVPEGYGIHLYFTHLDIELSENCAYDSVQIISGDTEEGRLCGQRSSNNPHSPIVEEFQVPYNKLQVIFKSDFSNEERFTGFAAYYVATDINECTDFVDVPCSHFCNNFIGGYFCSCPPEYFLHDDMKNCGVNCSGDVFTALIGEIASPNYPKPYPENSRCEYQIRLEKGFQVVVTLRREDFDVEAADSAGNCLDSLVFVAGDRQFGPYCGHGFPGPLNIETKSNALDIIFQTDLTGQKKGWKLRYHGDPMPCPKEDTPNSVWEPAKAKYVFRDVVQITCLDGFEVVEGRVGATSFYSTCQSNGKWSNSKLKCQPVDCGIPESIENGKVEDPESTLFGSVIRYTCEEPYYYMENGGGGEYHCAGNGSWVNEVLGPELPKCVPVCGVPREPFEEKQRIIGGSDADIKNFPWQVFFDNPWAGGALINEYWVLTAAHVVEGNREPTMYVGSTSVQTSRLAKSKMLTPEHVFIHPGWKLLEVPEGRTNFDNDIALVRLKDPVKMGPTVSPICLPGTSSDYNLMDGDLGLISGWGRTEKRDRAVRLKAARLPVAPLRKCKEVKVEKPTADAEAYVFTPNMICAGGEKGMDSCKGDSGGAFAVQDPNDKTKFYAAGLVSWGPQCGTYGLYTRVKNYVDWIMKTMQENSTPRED
Description: direct binding of antibody to activated C1s (aC1s); assay format not stated.

For assay [2], the target named is T1, activated human complement C1s. The experiment in a line: cell-based or functional assay.
Assay [3] shares this target. Description: competition binding to active C1s; competitor 50 pM biotinylated TNT005 (Biot-005). The procedure: All 15 combinations (VH variant 1+Vk variant 1; VH variant 1+Vk variant 2; VH variant 1+Vk variant 5; VH variant 2+Vk variant 1; VH variant 2+Vk variant 2; VH variant 2+Vk variant 5; VH variant 3+Vk variant 1; VH variant 3+Vk variant 2; VH variant 3+Vk variant 5; VH variant 4+Vk variant 1; VH variant 4+Vk variant 2; VH variant 4+Vk variant 5; VH variant 5+Vk variant 1; VH variant 5+Vk variant 2; VH variant 5+Vk variant 5) were produced. Each humanized variant was tested for the ability to compete with biotinylated TNT005 for binding to active C1s.

Assay [4] has the same target. The experiment in a line: kinetic characterization of binding to active human C1s; instrument not stated.
For assay [5] the target is unchanged. The experiment in a line: kinetic characterization of binding to active human C1s; instrument not stated; column head kdis.

B1: TNT005.001 (antibody, V domains shown)
VH: EVQLQQSGAELVRPGASVKLSCTASGFNIKDDYIHWVKQRPEQGLEWIGRIDPADGHTKYAPKFQVKATITADTSSNTAYLQLSSLTSEDTAVYYCARYGYGREVFDYWGQGTTLTVSS
VL: DIVLTQSPASLAVSLGQRATISCKASQSVDYDGDSYMNWYQQKTGQPPKILIYDASNLESGIPARFSGSGSGTDFTLNIHPVEEEDAAIYYCQQSNEDPWTFGGGTKLEIK
notes: Unlabelled parental antibody; also called parental TNT005 (not biotinylated)
Regarding B1, the response in assay [1] was half-maximal at 0.0559 nM (EC50). For the same molecule, the “IC50 of classical complement pathway inhibition (commercial CP activation assay)” value in assay [2] came to 1.06 nM. For the same molecule, the IC50 in assay [3] is 0.0395 nM.

B2: biotinylated TNT005 (antibody, V domains shown)
VH: B1 VH
VL: B1 VL
notes: Parental antibody; also called Biot-005; parental TNT005
B2 came in with an EC50 in assay [1] of 0.0828 nM.

B3: humanized TNT005 variant VH variant 3+Vk variant 2 (antibody, V domains shown)
VH: QVQLVQSGAEVKKPGASVKLSCTASGFNIKDDYIHWVKQAPGQGLEWIGRIDPADGHTKYAPKFQVKVTITADTSTSTAYLELSSLRSEDTAVYYCARYGYGREVFDYWGQGTTVTVSS
VL: B1 VL with A9D, Q17E, T44P, N78T, H80S, P81S, V82L, E84P, A87F, L108V
notes: also called VH variant 3 + VL variant 2
For B3, a half-maximal response in assay [1] (EC50) required 0.163 nM. For the same molecule, the “IC50 of classical complement pathway inhibition (commercial CP activation assay)” value in assay [2] worked out at 1.26 nM. In assay [4], this molecule came in with a Kd of 0.585 nM and a kon of 838000 M⁻¹ s⁻¹. This molecule returned a koff in assay [5] of 0.00049 s⁻¹. For the same molecule, the IC50 in assay [3] worked out at 0.183 nM.

B4: humanized TNT005 variant VH variant 2+Vk variant 1 (antibody, V domains shown)
VH: B3 VH with Q1E, V68A, S77N
VL: B1 VL with A9D, Q17E, N78T, H80S, P81S, V82L, A87F, L108V
notes: also called VH variant 2 + VL variant 1
B4 came in with an EC50 in assay [1] of 0.137 nM. For the same molecule, the “IC50 of classical complement pathway inhibition (commercial CP activation assay)” value in assay [2] turned out to be 1.23 nM. In assay [4], this molecule gave a Kd of 0.251 nM and a kon of 829000 M⁻¹ s⁻¹. In assay [5], this molecule yielded a koff of 0.000208 s⁻¹. In assay [3], the concentration for half-maximal inhibition (IC50) worked out at 0.144 nM.

B5: humanized TNT005 variant VH variant 2+Vk variant 2 (antibody, V domains shown)
VH: B3 VH with Q1E, V68A, S77N
VL: B1 VL with A9D, Q17E, T44P, N78T, H80S, P81S, V82L, E84P, A87F, L108V
notes: also called VH variant 2 + VL variant 2
As for B5, the EC50 in assay [1] was determined as 0.134 nM. In addition, the “IC50 of classical complement pathway inhibition (commercial CP activation assay)” value in assay [2] was 1.26 nM. Besides, in assay [4], the affinity, expressed as Kd, was 0.206 nM and the kon was found to be 835000 M⁻¹ s⁻¹. In addition, the koff in assay [5] was 0.000172 s⁻¹. The IC50 in assay [3] came out at 0.158 nM.

B6: humanized TNT005 variant VH variant 1+Vk variant 5 (antibody, V domains shown)
VH: B3 VH with Q1E, V11L, V68A, S77N, E82Q, R87T
VL: DIVLTQSPDSLAVSLGERATISCKASQSVDYDGDSYMNWYQQKPGQPPKLLIYDASNLESGIPARFSGSGSGTDFTLTISSLEPEDFAVYYCQQSNEDPWTFGGGTKVEIK
notes: also called VH variant 1 + VL variant 5
Regarding B6, the EC50 in assay [1] is 0.107 nM. In addition, the “IC50 of classical complement pathway inhibition (commercial CP activation assay)” value in assay [2] is 1.26 nM. In assay [4], the Kd was 0.217 nM and the kon was determined as 776000 M⁻¹ s⁻¹. For the same molecule, the koff in assay [5] came out at 0.000168 s⁻¹. For the same molecule, the IC50 in assay [3] stood at 0.129 nM.

B7: humanized TNT005 variant VH variant 3+Vk variant 1 (antibody, V domains shown)
VH: B3 VH
VL: B6 VL with P44T, L50I, P84E, V89I
notes: also called VH variant 3 + VL variant 1
Take B7: in assay [1], the EC50 was 0.168 nM. Further, in assay [2], the “IC50 of classical complement pathway inhibition (commercial CP activation assay)” value was determined as 1.27 nM. In addition, in assay [3], the 50% inhibitory concentration (IC50) worked out at 0.179 nM.

B8: humanized TNT005 variant VH variant 5+Vk variant 1 (antibody, V domains shown)
VH: B3 VH with L20V, T23A, K38R, L81M
VL: B6 VL with P44T, L50I, P84E, V89I
notes: also called VH variant 5 + VL variant 1
Molecule B8 showed a concentration giving a half-maximal response (EC50) in assay [1] of 0.113 nM. For the same molecule, the “IC50 of classical complement pathway inhibition (commercial CP activation assay)” value in assay [2] was 1.06 nM. In assay [4], this molecule showed a Kd of 0.457 nM and a kon of 1.03e+06 M⁻¹ s⁻¹. The molecule further came in with a koff in assay [5] of 0.000471 s⁻¹. In addition, the concentration for half-maximal inhibition (IC50) in assay [3] was determined as 0.0449 nM.

B9: humanized TNT005 variant VH variant 1+Vk variant 2 (antibody, V domains shown)
VH: B3 VH with Q1E, V11L, V68A, S77N, E82Q, R87T
VL: B6 VL with L50I, V89I
notes: also called VH variant 1 + VL variant 2
Regarding B9, in assay [1], the EC50 was 0.088 nM. In addition, in assay [2], the “IC50 of classical complement pathway inhibition (commercial CP activation assay)” value came out at 1.14 nM. In assay [4], this molecule came in with a Kd of 0.208 nM and a kon of 818000 M⁻¹ s⁻¹. The molecule further had a koff in assay [5] of 0.00017 s⁻¹. Besides, the IC50 in assay [3] is 0.0557 nM.

B10: humanized TNT005 variant VH variant 5+Vk variant 2 (antibody, V domains shown)
VH: B3 VH with L20V, T23A, K38R, L81M
VL: B6 VL with L50I, V89I
notes: also called VH variant 5 + VL variant 2
In turn, B10 returned an EC50 in assay [1] of 0.164 nM. Further, in assay [2], the “IC50 of classical complement pathway inhibition (commercial CP activation assay)” value was 1.31 nM. For the same molecule, the IC50 in assay [3] came to 0.148 nM.

B11: humanized TNT005 variant VH variant 1+Vk variant 1 (antibody, V domains shown)
VH: B3 VH with Q1E, V11L, V68A, S77N, E82Q, R87T
VL: B6 VL with P44T, L50I, P84E, V89I
notes: also called VH variant 1 + VL variant 1
In assay [1], B11 came in with an EC50 of 0.201 nM. In addition, the “IC50 of classical complement pathway inhibition (commercial CP activation assay)” value in assay [2] is 1.2 nM. Also, in assay [4], binding was characterised by a dissociation constant (Kd) of 0.228 nM and the kon was found to be 864000 M⁻¹ s⁻¹. Besides, the dissociation rate constant (koff) in assay [5] amounted to 0.000197 s⁻¹. For the same molecule, in assay [3], the IC50 was found to be 0.124 nM.

B12: humanized TNT005 variant VH variant 4+Vk variant 2 (antibody, V domains shown)
VH: B3 VH with L20V, K38R, L81M
VL: B6 VL with L50I, V89I
notes: also called VH variant 4 + VL variant 2
In turn, B12 registered a concentration giving a half-maximal response (EC50) in assay [1] of 0.119 nM. In assay [2], the “IC50 of classical complement pathway inhibition (commercial CP activation assay)” value is 1.31 nM. Moreover, in assay [3], the IC50 was 0.158 nM.

B13: humanized TNT005 variant VH variant 5+Vk variant 5 (antibody, V domains shown)
VH: B3 VH with L20V, T23A, K38R, L81M
VL: B6 VL
notes: also called VH variant 5 + VL variant 5
In assay [1], B13 had an EC50 of 0.165 nM. Further, the “IC50 of classical complement pathway inhibition (commercial CP activation assay)” value in assay [2] was 1.33 nM. In addition, the IC50 in assay [3] was 0.137 nM.

B14: humanized TNT005 variant VH variant 4+Vk variant 5 (antibody, V domains shown)
VH: B3 VH with L20V, K38R, L81M
VL: B6 VL
notes: also called VH variant 4 + VL variant 5
On to B14, for which, in assay [1], a half-maximal response (EC50) required 0.205 nM. Also, in assay [2], the “IC50 of classical complement pathway inhibition (commercial CP activation assay)” value was 1.54 nM. For the same molecule, in assay [3], the IC50 was 0.156 nM.

B15: humanized TNT005 variant VH variant 3+Vk variant 5 (antibody, V domains shown)
VH: B3 VH
VL: B6 VL
notes: also called VH variant 3 + VL variant 5
Molecule B15 came in with an EC50 in assay [1] of 0.138 nM. Besides, the “IC50 of classical complement pathway inhibition (commercial CP activation assay)” value in assay [2] came to 1.38 nM. For the same molecule, the IC50 in assay [3] stood at 0.158 nM.

B16: humanized TNT005 variant VH variant 4+Vk variant 1 (antibody, V domains shown)
VH: B3 VH with L20V, K38R, L81M
VL: B6 VL with P44T, L50I, P84E, V89I
notes: also called VH variant 4 + VL variant 1
Regarding B16, the EC50 in assay [1] amounted to 0.152 nM. Besides, the “IC50 of classical complement pathway inhibition (commercial CP activation assay)” value in assay [2] is 1.35 nM. Moreover, in assay [3], the IC50 is 0.152 nM.

B17: humanized TNT005 variant VH variant 2+Vk variant 5 (antibody, V domains shown)
VH: B3 VH with Q1E, V68A, S77N
VL: B6 VL
notes: also called VH variant 2 + VL variant 5
For B17, the concentration for a half-maximal effect (EC50) in assay [1] came out at 0.124 nM. The “IC50 of classical complement pathway inhibition (commercial CP activation assay)” value in assay [2] is 1.27 nM. In assay [4], this molecule yielded a Kd of 0.208 nM and a kon of 798000 M⁻¹ s⁻¹. Besides, the koff in assay [5] came out at 0.000166 s⁻¹. Also, the IC50 in assay [3] is 0.168 nM.
